Experiment [1] has as its target recombinant CAIX extra-cellular domain (UniProt Q16790 38-414). Kind of experiment: competitive ELISA (Friguet), soluble CAIX ECD against coated CAIX ECD. The protocol: To determine the binding affinity of the anti-CAIX scFvs, competitive ELISA was performed. The CAIX ECD fragment proteins in 2-fold serial dilution (100-13 μg/ml) were pre-incubated with anti-CAIX scFvs (NAVICA9S1: 0.62 μg/ml, NAVICA9S2: 0.32 μg/ml,
NAVICA9L2: 0.16 μg/ml, NAVICA9L3: 0.32 μg/ml) at 1:1 volume ratio at room temperature for 1 hour. The mixtures were then added into ELISA plate coated with CAIX ECD fragment proteins (0.25 or 0.5 μg/well). After 1 hour incubation, the mouse anti-HA IgG (1:5,000) and HRP-conjugated rabbit anti-mouse IgG (1:10,000) were added as the secondary and third antibodies. Following the incubation and washing, 3,3′,5,5′-Tetramethylbenzidine (TMB) was added for color development, which was stopped by HCl and detected using an ELISA plate reader. The Kd values of scFvs were estimated and expressed by molarity (M) as described by Friguet et al. (J. Immunol. Methods, 77: 305-319, 1985). N/A: not available.

Experiment [2] concerns the target recombinant CAIX fragment 2 (UniProt Q16790 154-353). The experiment is described as follows: binding to recombinant CAIX fragments, epitope mapping.
Experiment [3] deals with T1, recombinant CAIX fragment 3 (UniProt Q16790 228-414, limits assumed).
T1 construct: domain: fragment 3(F3); Expressed in E. coli from pET-21a(+) or pET-32a(+); also called F3; CAIX F3
Described as above.

B1: NAVICA9S1 (scFv, V domains shown)
VH: AVTLDESEGGLQTPGGALSLVCKASGFTFSSYAMNWVRQAPGKGLEFVAGITNTGSSAGYGAAVKGRATISRDNGQSTVRLQLNNLRAEDTATYFCTKSYGGWCDHACAPDDIDTWGHGTEVIVSS
VL: ALTQPSSVSANPGETVKITCSGGGKNYGWYQQKSPGSAPVTVIYLNDKRPSNIPSRFSGSKSGSTHTLTITGVQAEDEAVYFCGSRDSSPTFGAGTTLTVL
notes: Chicken scFv from phage display, expressed in E. coli; also called anti-CAIX scFv NAVICA9S1; clone NAVICA9S1; not shown: linker; tags from the pComb3X vector (purified on Ni2+ Sepharose, detected with anti-HA)
Consider B1, for which the Kd in experiment [1] was determined as 64.3 nM.

B2: NAVICA9S2 (scFv, V domains shown)
VH: AVTLDESGGGLQTPRGALSLVCKASGFTFSSFNMFWVRQAPGKGLEYVAAISSDGSRSRYGSAVQGRATISRDNGQSTVRLQLNSLRAEDTGTYYCAKRPYSGCTSNNFCFNAAYIDVWGHGTEVIVSS
VL: ALTQPSSVSANLGETVEITCSGSSGSYGWYQQKSPGSAPVTVIYYNDKRPSDIPSRFSGSKSGSTGTLTITGVQAEDEAVYYCGSADRSGAGIFGAGTTLTVL
notes: Chicken scFv; also called anti-CAIX scFv NAVICA9S2; clone NAVICA9S2; not shown: linker; tags from the pComb3X vector (purified on Ni2+ Sepharose, detected with anti-HA)
For the molecule B2, the Kd in experiment [1] is 11.5 nM.

B3: NAVICA9L2 (scFv, V domains shown)
VH: AVTLDESGGGLQTPGGGLSLVCKASGFTFSSYAIQWVRQAPGKGLEWVAGISDDGSWTGYGAAVKGRATISRDNGQSTMRLQLNNLRAEDTGIYYCAKGAGTGYCANRSFGCASTIDAWGHGTEVIVSS
VL: ALTQPSSVSANLGETVEITCSGSRGSYGWYQQKSPGSAPVTVIYYNVKRPSDIPSRFSGSKSGSTGTLTITGVQAEDEAVYYCGSADRSGAGIFGAGTTLTVL
notes: Chicken scFv; also called anti-CAIX scFv NAVICA9L2; clone NAVICA9L2; not shown: linker; tags from the pComb3X vector (purified on Ni2+ Sepharose, detected with anti-HA)
Turning to B3, in experiment [1], the Kd is 140 nM. Besides, the binding result in experiment [2] and in experiment [3] was “no binding” each time.

B4: NAVICA9L3 (scFv, V domains shown)
VH: AVTLDESGGGLQTPGGALSLVCKASGFTFSSFNMFWVRQAPGKGLEYVAAISSDGSRSRYGSAVQGRATISRDNGQSTVRLQLNSLRAEDTGTYYCAKRPYSGCTSNNFCFNAAYIDVWGHGTEVIVSS
VL: ALTQPSSVSANLGETVEITCSGSSGSYGWYQQKSPGSAPVTVIYYNDKRPSDIPSRFSGSKSGSTGTLTITGVQAEDEAVYYCGSADRSGAGIFGAGTTLTVL
notes: Chicken scFv; also called anti-CAIX scFv NAVICA9L3; clone NAVICA9L3; not shown: linker; tags from the pComb3X vector (purified on Ni2+ Sepharose, detected with anti-HA)
As to B4, in experiment [1], the Kd is 9.26 nM.

The values are drawn from US20220049012A1 (NAVI BIO THERAPEUTICIS, published 2022).
